In patent publication US20030219846A1, “Assay for activity of the ActRIIB kinase” (Pfizer Inc., priority 2002, published 2003):

B1: his-catActRIIB kinase (protein)
chain: YGHVDIHEDPGPPPPSPLVGLKPLQLLEIKARGRFGCVWKAQLMNDFVAVKIFPLQDKQSWQSEREIFSTPGMKHENLLQFIAAEKRGSNLEVELWLITAFHDKGSLTDYLKGNIITWNELCHVAETMSRGLSYLHEDVPWCRGEGHKPSIAHRDFKSKNVLLKSDLTAVLADFGLAVRFEPGKPPGDTHGQVGTRRYMAPEVLEGAINFQRDAFLRIDMYAMGLVLWELVSRCKAADGPVDEYMLPFEEEIGQHPSLEELQEVVVHKKMRPTIKDHWLKHPGLAQLCVTIEECWDHDAEARLSAGCVEERVSLIRRSVNGTTSDCLVSLVTSVTNVDLPPKESSI
B2: MBP: Myelin Basic Protein, a commonly used substrate for kinase assays (protein, UniProt P02687 1-169, looked up)
Myelin basic protein: AAQKRPSQRSKYLASASTMDHARHGFLPRHRDTGILDSLGRFFGSDRGAPKRGSGKDGHHAARTTHYGSLPQKAQGHRPQDENPVVHFFKNIVTPRTPPPSQGKGRGLSLSRFSWGAEGQKPGFGYGGRASDYKSAHKGLKGHDAQGTLSKIFKLGGRDSRSGSPMARR

Columns and labels:
his-catActRIIB kinase [1] = target: T1, his-catActRIIB kinase (Homo sapiens, UniProt Q13705); assay: Autoradiographic kinase assay method (substrate phosphorylation); format: biochemical; details: 1 mg/ml target peptide or 2.5 μM MBP, 10 μM ATP, [32P]-ATP, 30 minutes, ambient temperature
T1 construct: His tag
Protocol: A 20 μl reaction mixture comprising 2.5 μg/ml his-catActRIIB kinase, 1 mg/ml target peptide or 2.5 μM myelin basic protein (MBP), 10 μM ATP, 10 μCi [^32P]y-ATP (6000 Ci/mmol), 1 mg/ml bovine serum albumin (BSA), and 5 mM sodium orthovanadate in 25 mM HEPES (pH 7.3) was run for 30 minutes at ambient temperature. The reaction was stopped by adding ⅓ volume of 3× Laemmli buffer with β-mercaptoethanol and trace bromphenol blue (188 mM Tris pH 6.8, 3% SDS, 24% glycerol, 25% v/v, β-mercaptoethanol). The stopped reaction was loaded directly onto a 18% polyacrylamide/tris/glycine gel without boiling. The gel was run at about 100 volts to permit proper separation, washed for five minutes in water, and equilibrated for five minutes in semi-dry blotting buffer (48 mM Tris base, 39 mM glycine, 20% methanol, 0.375% SDS). Reaction products were then blotted onto a nitrocellulose filter for 48 minutes at 20 volts in a Bio-Rad semi-dry blotting apparatus and visualized and/or quantitated by autoradiography.

his-catActRIIB kinase [2] = target: T1, his-catActRIIB kinase; assay: Scintillation method kinase assay (TCA precipitation, filter plate); format: biochemical; details: target peptide 176 μM or MBP 2 μM, 10 μM ATP, [33P]-ATP, 80 min, room temperature
Protocol: A series of reaction mixtures comprising 25 mM HEPES (pH 7.3), 3 mM MgCl2, 1 mM MnCl2, 0.1 mM EDTA, 1 mM DTT, 0.2 mM sodium orthovanadate, 100 μg/ml BSA, 10 μM ATP, 0.25 μCi [^33P]y-ATP, and 16.5 μg/ml his-catActRIIB kinase was run in a total of 100 μl directly in a Durapore (Millipore) filter plate for 80 min at room temperature. The reaction was stopped by addition of an equal volume of ice cold TCA (10% or 25% v/v). After one hour at 4° C., the precipitate was collected under vacuum. The precipitate was washed five times with cold TCA. After drying overnight, scintillant was added to the well and plates counted in a Microbeta 1450 Trilux in the Paralux mode. Different reactions included either the target peptide (176 μM), MBP (2 μM), or no substrate.

target peptide = target: T2, target peptide
T2 chain: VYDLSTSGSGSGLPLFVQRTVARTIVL

Molecule | phosphorylation of substrate, labelled band visualized by autoradiography (his-catActRIIB kinase [1]) | signal from labelled substrate by scintillation counting (his-catActRIIB kinase [2]) | phosphorylation of substrate, [32P]ATP autoradiography after gel electrophoresis and blotting (myelin basic protein) | phosphorylation of substrate, [33P]ATP, TCA precipitation on filter plate, scintillation counting (myelin basic protein) | phosphorylation of substrate, [32P]ATP autoradiography after gel electrophoresis and blotting (target peptide) | phosphorylation of substrate, [33P]ATP, TCA precipitation on filter plate, scintillation counting (target peptide)
H2N-Val-Tyr-Asp-Leu-Ser-Thr-Ser-Gly-Ser-Gly-Ser-Gly-Leu-Pro-Leu-Phe-Val-Gln-Arg-Thr-Val-Ala-Arg-Thr-Ile-Val-Leu-COOH (H-VYDLSTSGSGSGLPLFVQRTVARTIVL-OH; not fully specified) [target peptide, 27 amino acid substrate peptide for the ActRIIB kinase assay] | labelled target peptide | performed very well |  |  |  | 
B1 |  |  | In the reaction mixture comprising MBP, bands were visualized at 18 Kd and 40 Kd, corresponding to labelled MBP and autophosphorylated his-catActRIIB kinase, respectively | the reaction with MBP unexpectedly yields a negative result | In the reaction mixture comprising target peptide, bands were visualized at 3 Kd and 40 Kd, corresponding to labelled target peptide and autophosphorylated his-catActRIIB kinase, respectively | the reaction performed very well with the target peptide as a substrate
B2 | labelled MBP | negative result |  |  |  | 
